Test system: Bacillus subtilis
Experiment: cleaved RNA product abundance (RNA/gDNA barcode ratio) relative to median wild-type variant (ratio to wild type); higher = more accumulation of the downstream cleavage product
Details: cleavage site: cggR-gapA (positions -7 to +36 mutated)
How it was run: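 Reporter mRNAs (truncated aprE or tetM) carrying barcoded, mutagenized RNase Y cleavage-site windows were made from oligos with a 9% error rate and integrated into the B. subtilis chromosome. Cultures grew in LB at 37°C from OD600 0.0003 to 0.3. Cleaved RNA was gel-selected, reverse transcribed and barcode-sequenced alongside genomic DNA barcodes, with UMI collapsing. Cleaved product abundance is the RNA:gDNA barcode ratio per variant, scaled to the median wild-type variant.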

[1] = experiment (reporter, strain, medium): exp 2b: truncated aprE reporter, strain BJT200
[2] = experiment (reporter, strain, medium): exp 4a: truncated aprE reporter, strain BJT201 with 2% xylose (RNase J1 expressed)
[3] = experiment (reporter, strain, medium): exp 6: tetM reporter, strain 168

| Sequence | cleaved RNA product abundance [1] | cleaved RNA product abundance [2] | cleaved RNA product abundance [3] |
| --- | --- | --- | --- |
| ACAGACGAAGGAGCCGCAAAGAAGTTATTGAGGGATGAATAATCCCTCAATATAAATATCTCTCACTTATTTAAA | 0.116 | 0.0555 | 0.247 |
| ACAGACGAAGGAGCCGCAAAGAAGTTATTGAGGGATGAATAATCCCTCAATATACATATCTCTCACTTATTTAAA |  | 0.0596 |  |
| ACAGACGAAGGAGCCGCAAAGAAGTTATTGAGGGATGAATACTCCCTCAATATAAATATCTCTCACTTATTTAAA |  | 0.0909 |  |
| ACAGACGAAGGAGCCGCAAAGAAGTTATTGAGGGATGAATTATCCCTCAATATAAATATCTCTCACTTATTTAAA |  | 0.0896 |  |
| ACAGACGAAGGAGCCGCAAAGAAGTTATTGAGGGCTGAATAATCCCTCAATATAAATATCTCTCACTTATTTAAA |  | 0.167 |  |
| ACAGACGAAGGAGCCGCAAAGAAGTTATTGCGGGATGAATAATCCCTCAATATAAATATCTCTCACTTATTTAAA |  | 0.869 |  |
| ACAGACGAAGGAGCCGCAAAGAAGTTATTTAAGGATGAATAATCCCTCAATATAAATATCTCTCACTTATTTAAA | 0.125 | 0.182 |  |
| ACAGACGAAGGAGCCGCAAAGAAGTTATTTAAGGGATGAATAATCCCTCAATATAAATATCTCTCACTTATTTAA |  | 0.315 |  |
| ACAGACGAAGGAGCCGCAAAGAAGTTATTTAGCGATGAATAATCCCTCAATATAAATATCTCTCACTTATTTAAA | 0.117 | 0.0809 |  |
| ACAGACGAAGGAGCCGCAAAGAAGTTATTTAGGAATGAATAATCCCTCAATATAAATATCTCTCACTTATTTAAA |  | 0.127 |  |
| ACAGACGAAGGAGCCGCAAAGAAGTTATTTAGGCATGAATAATCCCTCAATATAAATATCTCTCACTTATTTAAA | 0.0926 | 0.135 |  |
| ACAGACGAAGGAGCCGCAAAGAAGTTATTTAGGGAAGAATAATCCCTCAATATAAATATCTCTCACTTATTTAAA |  | 0.572 |  |
| ACAGACGAAGGAGCCGCAAAGAAGTTATTTAGGGATAAATAATCCCTCAATATAAATATCTCTCACTTATTTAAA | 0.577 | 0.696 |  |
| ACAGACGAAGGAGCCGCAAAGAAGTTATTTAGGGATCAATAATCCCTCAATATAAATATCTCTCACTTATTTAAA |  | 0.787 |  |
| ACAGACGAAGGAGCCGCAAAGAAGTTATTTAGGGATGAACAATCCCTCAATATAAATATCTCTCACTTATTTAAA |  | 0.85 |  |
| ACAGACGAAGGAGCCGCAAAGAAGTTATTTAGGGATGAAGAATCCCTCAATATAAATATCTCTCACTTATTTAAA |  | 0.607 |  |
| ACAGACGAAGGAGCCGCAAAGAAGTTATTTAGGGATGAATAACCCCTCAATATAAATATCTCTCACTTATTTAAA |  | 0.288 |  |
| ACAGACGAAGGAGCCGCAAAGAAGTTATTTAGGGATGAATAATACCTCAATATAAATATCTCTCACTTATTTAAA |  | 0.141 |  |
| ACAGACGAAGGAGCCGCAAAGAAGTTATTTAGGGATGAATAATCACTCAATATAAATATCTCTCACTTATTTAAA |  | 0.137 |  |
| ACAGACGAAGGAGCCGCAAAGAAGTTATTTAGGGATGAATAATCCATCAATATAAATATCTCTCACTTATTTAAA |  | 0.34 |  |
| ACAGACGAAGGAGCCGCAAAGAAGTTATTTAGGGATGAATAATCCCACAATATAAATATCTCTCACTTATTTAAA |  | 0.268 |  |
| ACAGACGAAGGAGCCGCAAAGAAGTTATTTAGGGATGAATAATCCCTAAATATAAATATCTCTCACTTATTTAAA | 0.353 |  |  |
| ACAGACGAAGGAGCCGCAAAGAAGTTATTTAGGGATGAATAATCCCTCAAGATAAATATCTCTCACTTATTTAAA | 0.16 |  |  |
| ACAGACGAAGGAGCCGCAAAGAAGTTATTTAGGGATGAATAATCCCTCAATACAAATATCTCTCACTTATTTAAA |  | 0.0541 |  |
| ACAGACGAAGGAGCCGCAAAGAAGTTATTTAGGGATGAATAATCCCTCAATATAAAAATCTCTCACTTATTTAAA |  | 0.601 |  |
| ACAGACGAAGGAGCCGCAAAGAAGTTATTTAGGGATGAATAATCCCTCAATATAAACATCTCTCACTTATTTAAA |  | 0.701 |  |
| ACAGACGAAGGAGCCGCAAAGAAGTTATTTAGGGATGAATAATCCCTCAATATAAATATCTCTCACTTATTTAAA | 0.704 | 0.799 | 0.636 |
| ACAGACGAAGGAGCCGCAAAGAAGTTATTTAGGGATGAATAATCCCTCAATATAATTATCTCTCACTTATTTAAA |  | 0.52 |  |

| Sequence | cleaved RNA product abundance [1] | cleaved RNA product abundance [2] | cleaved RNA product abundance [3] |
| --- | --- | --- | --- |
| ACAGACGAAGGAGCCGCAAAGAAGTTATTTAGGGATGAATAATCCCTCAATATACATATCTCTCACTTATTTAAA |  | 0.312 |  |
| ACAGACGAAGGAGCCGCAAAGAAGTTATTTAGGGATGAATAATCCCTCAATTTAAATATCTCTCACTTATTTAAA |  | 0.119 |  |
| ACAGACGAAGGAGCCGCAAAGAAGTTATTTAGGGATGAATAATCCCTGAATATAAATATCTCTCACTTATTTAAA |  | 0.559 |  |
| ACAGACGAAGGAGCCGCAAAGAAGTTATTTAGGGATGAATAATCCCTTAATATAAATATCTCTCACTTATTTAAA |  | 1.39 |  |
| ACAGACGAAGGAGCCGCAAAGAAGTTATTTAGGGATGAATAATCCGTCAATATAAATATCTCTCACTTATTTAAA | 0.169 | 0.247 |  |
| ACAGACGAAGGAGCCGCAAAGAAGTTATTTAGGGATGAATAATCCTTCAATATAAATATCTCTCACTTATTTAAA |  | 0.531 |  |
| ACAGACGAAGGAGCCGCAAAGAAGTTATTTAGGGATGAATAATCGCTCAATATAAATATCTCTCACTTATTTAAA |  | 0.0995 |  |
| ACAGACGAAGGAGCCGCAAAGAAGTTATTTAGGGATGAATAATCTCTCAATATAAATATCTCTCACTTATTTAAA |  | 0.646 |  |
| ACAGACGAAGGAGCCGCAAAGAAGTTATTTAGGGATGAATAATTCCTCAATATAAATATCTCTCACTTATTTAAA |  | 0.405 |  |
| ACAGACGAAGGAGCCGCAAAGAAGTTATTTAGGGATGAATCATCCCTCAATATAAATATCTCTCACTTATTTAAA |  | 0.542 |  |
| ACAGACGAAGGAGCCGCAAAGAAGTTATTTAGGGATGACTAATCCCTCAATATAAATATCTCTCACTTATTTAAA |  | 0.541 |  |
| ACAGACGAAGGAGCCGCAAAGAAGTTATTTAGGGATGATTAATCCCTCAATATAAATATCTCTCACTTATTTAAA |  | 0.659 |  |
| ACAGACGAAGGAGCCGCAAAGAAGTTATTTAGGGATTAATAATCCCTCAATATAAATATCTCTCACTTATTTAAA | 0.951 | 1.08 |  |
| ACAGACGAAGGAGCCGCAAAGAAGTTATTTAGGGTTGAATAATCCCTCAATATAAATATCTCTCACTTATTTAAA | 0.225 | 0.344 |  |
| ACAGACGAAGGAGCCGCAAAGAAGTTATTTAGGTATGAATAATCCCTCAATATAAATATCTCTCACTTATTTAAA | 0.121 | 0.165 |  |
| ACAGACGAAGGAGCCGCAAAGAAGTTATTTAGTGATGAATAATCCCTCAATATAAATATCTCTCACTTATTTAAA | 0.0988 | 0.111 |  |
| ACAGACGAAGGAGCCGCAAAGAAGTTATTTATGGATGAATAATCACTCAATATAAATATCTCTCACTTATTTAAA |  | 0.124 |  |
| ACAGACGAAGGAGCCGCAAAGAAGTTATTTATGGATGAATAATCCCTCAATATAAATATCTCTCACTTATTTAAA |  | 0.165 |  |
| ACAGACGAAGGAGCCGCAAAGAAGTTCATAAGGGATGAATAATCCCTCAATATAAATATCTCTCACTTATTTAAA | 0.162 |  |  |
| ACAGACGAAGGAGCCGCAAAGAAGTTCTGAAGGGATGAATAATCCCTCAATATAAATATCTCTCACTTATTTAAA | 0.193 |  |  |
| ACAGACGAAGGAGCCGCAAAGAAGTTCTTAAAGGATGAATAATCCCTCAATATAAATATCTCTCACTTATTTAAA |  | 0.112 |  |
| ACAGACGAAGGAGCCGCAAAGAAGTTCTTAAGAGATGAATAATCCCTCAATATAAATATCTCTCACTTATTTAAA |  | 0.117 |  |
| ACAGACGAAGGAGCCGCAAAGAAGTTCTTAAGGAATGAATAATCCCTCAATATAAATATCTCTCACTTATTTAAA |  | 0.133 |  |
| ACAGACGAAGGAGCCGCAAAGAAGTTCTTAAGGCATGAATAATCCCTCAATATAAATATCTCTCACTTATTTAAA | 0.092 | 0.122 |  |
| ACAGACGAAGGAGCCGCAAAGAAGTTCTTAAGGGAAGAATAATCCCTCAATATAAATATCTCTCACTTATTTAAA |  | 0.113 |  |
| ACAGACGAAGGAGCCGCAAAGAAGTTCTTAAGGGATAAATAATCCCTCAATATAAATATCTCTCACTTATTTAAA | 0.104 | 0.212 |  |
| ACAGACGAAGGAGCCGCAAAGAAGTTCTTAAGGGATCAATAATCCCTCAATATAAATATCTCTCACTTATTTAAA |  | 0.205 |  |
